B1: Alanine--glyoxylate aminotransferase, P21549 (parent)
chain: MASHKLLVTPPKALLKPLSIPNQLLLGPGPSNLPPRIMAAGGLQMIGSMSKDMYQIMDEIKEGIQYVFQTRNPLTLVISGSGHCALEAALVNVLEPGDSFLVGANGIWGQRAVDIGERIGARVHPMTKDPGGHYTLQEVEEGLAQHKPVLLFLTHGESSTGVLQPLDGFGELCHRYKCLLLVDSVASLGGTPLYMDRQGIDILYSGSQKALNAPPGTSLISFSDKAKKKMYSRKTKPFSFYLDIKWLANFWGCDDQPRMYHHTIPVISLYSLRESLALIAEQGLENSWRQHREAAAYLHGRLQALGLQLFVKDPALRLPTVTTVAVPAGYDWRDIVSYVIDHFDIEIMGGLGPSTGKVLRIGLLGCNATRENVDRVTEALRAALQHCPKKKL

Variants of: B1
Settings: Homo sapiens; pH 7.4; Thermal; DSC; Hepes 20 mM; NaCl 200 mM; transition: 2; reversible: No; structure 1H0C; whole UniProt chain shown

| Variant | Tm [°C] | change of melting temperature, mutant - wild type (higher = more stable) [°C] | unfolding enthalpy (calorimetric) [kcal/mol] |
| --- | --- | --- | --- |
| MASHKLLVTPPKALLKPLSIPNQLLLGPGPSNLPPRIMAAGGLQMIGSMHKDMYQIMDEIKEGIQYVFQTRNPLTLVISGSGHCALEAALVNVLEPGDSFLVGANGIWGQRAVDIGERIGARVHPMTKDPGGHYTLQEVEEGLAQHKPVLLFLTHGESSTGVLQPLDGFGELCHRYKCLLLVDSVASLGGTPLYMDRQGIDILYSGSQKALNAPPGTSLISFSDKAKKKMYSRKTKPFSFYLDIKWLANFWGCDDQPRMYHHTIPVISLYSLRESLALIAEQGLENSWRQHREAAAYLHGRLQALGLQLFVKDPALRLPTVTTVAVPAGYDWRDIVSYVIDHFDIEIMGGLGPSTGKVLRIGLLGCNATRENVDRVTEALRAALQHCPKKKL [S50H] | 67.1 | -2.9 | 357 |
| MASHKLLVTPLKALLKPLSIPNQLLLGPGPSNLPPRIMAAGGLQMIGSMSKDMYQIMDEIKEGIQYVFQTRNPLTLVISGSGRCALEAALVNVLEPGDSFLVGANGIWGQRAVDIGERIGARVHPMTKDPGGHYTLQEVEEGLAQHKPVLLFLTHGESSTGVLQPLDGFGELCHRYKCLLLVDSVASLGGTPLYMDRQGIDILYSGSQKALNAPPGTSLISFSDKAKKKMYSRKTKPFSFYLDIKWLANFWGCDDQPRMYHHTIPVISLYSLRESLALIAEQGLENSWRQHREAAAYLHGRLQALGLQLFVKDPALRLPTVTTVAVPAGYDWRDIVSYVMDHFDIEIMGGLGPSTGKVLRIGLLGCNATRENVDRVTEALRAALQHCPKKKL [P11L I340M H83R] | 58.2 | -11.8 | 235 |
| MASHKLLVTPLKALLKPLSIPNQLLLGPGPSNLPPRIMAAGGLQMIGSMSKDMYQIMDEIKEGIQYVFQTRNPLTLVISGSGHCALEAALVNVLEPGDSFLVGANGIWGQRAVDIGERIGARVHPMTKDPGGHYTLQEVEEGLAQHKPVLLFLTHGESSTGVLQPLDGFGELCHRYKCLLLVDSVASLGGTPLYMDRQGIDILYSGSQKALNAPPGTSLISFSDKAKKKMYSRKTKPFSFYLDIKWLANFWGCDDQPRMYHHTIPVISLYSLRESLALIAEQGLENSWRQHREATAYLHGRLQALGLQLFVKDPALRLPTVTTVAVPAGYDWRDIVSYVMDHFDIEIMGGLGPSTGKVLRIGLLGCNATRENVDRVTEALRAALQHCPKKKL [P11L I340M A295T] | 77.5 | 7.5 | 500 |
| MASHKLLVTPLKALLKPLSIPNQLLLGPGPSNLPPRIMAAGGLQMIGSMSKDMYQIMDEIKEGIQYVFQTRNPLTLVISGSGHCALEAALVNVLEPGDSFLVGANGIWGQRAVDIGERIGARVHPMTKDPGGHYTLQEVEEGLAQHKPVLLFLTHGESSTGVLQPLDGFGELCHRYKCLLLVDSVASLGGTPLYMDRQGIDILYSGSQKALNAPPGTSLISFSDKAKKKMYSRKTKPFSFYLDIKWLANFWGCDDQPRMYHHTIPVISLYSLRESLALIAEQGLENSWRQHREAAAYLHGRLQALGLQLFVKDPALRLPTVTTVAVPAGYDWRDIVSYVIDHFDIEIMGGLGPSTGKVLRIGLLGCNATRENVDRVTEALRAALQHCPKKKL [P11L] | 73.8 | 3.8 | 399 |
| MASHKLLVTPPKALLKPLSIPNRLLLGPGPSNLPPRIMAAGGLQMIGHMSKEMYQIMDEIKEGIQYVFQTRNPLTLVISGSGHCALEAALVNVLEPGDSFLVGANGIWGQRAADIGERIGARVHPMTKDPGGHYTLQEVEEGLAQHKPVLLFLTHGESSTGVLQPLDGFGELCHRYKCLLLVDSVASLGGTPLYMDRQGIDILYSGSQKALNAPPGTSLISFSDKAKKKMYSRKTKPFSFYLDIKWLANFWGCDDQPRMYHHTIPVISLYSLRESLALIAEQGLENSWRQHREAAAYLHGRLQALGLQLFVKDPALRLPTVTTVAVPAGYDWRDIVSYVMDHFDIEIMGGLGPSTGKVLRIGLLGCNATRENVDRVTEALRAALQHCPKKKL [Q23R S48H D52E V113A I340M] | 93.7 | 23.7 | 638 |
| MASHKLLVTPPKALLKPLSIPNRLLLGPGPSNLPPRIMAAGGLQMIGSMSKDMYQIMDEIKEGIQYVFQTRNPLTLVISGSGHCALEAALVNVLEPGDSFLVGANGIWGQRAVDIGERIGARVHPMTKDPGGHYTLQEVEEGLAQHKPVLLFLTHGESSTGVLQPLDGFGELCHRYKCLLLVDSVASLGGTPLYMDRQGIDILYSGSQKALNAPPGTSLISFSDKAKKKMYSRKTKPFSFYLDIKWLANFWGCDDQPRMYHHTIPVISLYSLRESLALIAEQGLENSWRQHREAAAYLHGRLQALGLQLFVKDPALRLPTVTTVAVPAGYDWRDIVSYVIDHFDIEIMGGLGPSTGKVLRIGLLGCNATRENVDRVTEALRAALQHCPKKKL [Q23R] | 84.5 | 14.5 | 475 |
| MASHKLLVTPLKALLKPLSIPNQLLLGPGPSNLPPRIMAAGGLQMIGSMSKDMYQIMDEIKEGIQYVFQTRNPLTLVISGSGHCALEAALVNVLEPGDSFLVGANGIWGQRAVDIGERIGARVHPMTKDPGGHYTLQEVEEGLAQHKPVLLFLTHGESSTGVLQPLDGFRELCHRYKCLLLVDSVASLGGTPLYMDRQGIDILYSGSQKALNAPPGTSLISFSDKAKKKMYSRKTKPFSFYLDIKWLANFWGCDDQPRMYHHTIPVISLYSLRESLALIAEQGLENSWRQHREAAAYLHGRLQALGLQLFVKDPALRLPTVTTVAVPAGYDWRDIVSYVMDHFDIEIMGGLGPSTGKVLRIGLLGCNATRENVDRVTEALRAALQHCPKKKL [P11L I340M G170R] | 75.5 | 5.5 | 459 |
| MASHKLLVTPLKALLKPLSIPNQLLLGPGPSNLPPRIMAAGGLQMIGSMSKDMYQIMDEIKEGIQYVFQTRNPLTLVISGSGHCALEAALVNVLEPGDSFLVGANGIWGQRAVDIGERIGARVHPMTKDPGGHYTLQEVEEGLAQHKPVLLFLTHGESSTGVLQPLDGFGELCHRYKCLLLVDSVASLGGTPLYMDRQGIDILYSGSQKALNAPPGTSLISFSDKAKKKMYSRKTKPFSFYLDTKWLANFWGCDDQPRMYHHTIPVISLYSLRESLALIAEQGLENSWRQHREAAAYLHGRLQALGLQLFVKDPALRLPTVTTVAVPAGYDWRDIVSYVMDHFDIEIMGGLGPSTGKVLRIGLLGCNATRENVDRVTEALRAALQHCPKKKL [P11L I340M I244T] | 75.8 | 5.8 | 402 |

Source: FireProtDB (doi:10.1016/j.bbapap.2014.10.010)
